This note sets out measurements from US20230257479A1 (Genmab, published 2023).

Positions count from the first letter of the chain named. Names may count otherwise.

The target of assay [1] is T1, human 5T4ECDHis (mature protein of SEQ ID NO: 99) (human, UniProt Q13641 32-355).
T1 construct: ECD of human 5T4 (aa 1-355 of Uniprot Q13641) with C-terminal His tag; residues 1-31 are the signal peptide; also called ECD of human 5T4 with a C-terminal His tag
T1 sequence: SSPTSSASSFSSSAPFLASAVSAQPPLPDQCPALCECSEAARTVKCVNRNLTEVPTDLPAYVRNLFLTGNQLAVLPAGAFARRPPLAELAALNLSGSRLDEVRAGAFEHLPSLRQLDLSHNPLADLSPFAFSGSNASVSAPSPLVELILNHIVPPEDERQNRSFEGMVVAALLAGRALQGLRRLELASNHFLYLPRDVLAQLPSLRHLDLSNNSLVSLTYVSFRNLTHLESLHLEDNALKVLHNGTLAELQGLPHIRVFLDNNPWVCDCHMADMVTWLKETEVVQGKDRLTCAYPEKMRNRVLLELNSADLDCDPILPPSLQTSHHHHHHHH
Nature of the assay: BLI cross-block; competitor (immobilised): IgG1-5T4-H8-FEAR.

For assay [2], the target named is T1, human 5T4ECDHis (mature protein of SEQ …). The assay is described as follows: BLI cross-block; competitor (immobilised): IgG1-5T4-059-FEAR.
The target is the same in assay [3]. The assay is described as follows: BLI cross-block; competitor (immobilised): IgG1-5T4-076-FEAR.
The target is the same in assay [4]. Nature of the assay: BLI cross-block; competitor (immobilised): IgG1-5T4-085-FEAR.
Assay [5] shares this target. The assay is described as follows: BLI cross-block; competitor (immobilised): IgG1-5T4-106-FEAR.
For assay [6] the target is unchanged. The assay is described as follows: BLI cross-block; competitor (immobilised): IgG1-5T4-127-FEAR.
For assay [7] the target is unchanged. The assay is described as follows: BLI cross-block; competitor (immobilised): IgG1-5T4-207-FEAR.
The target is the same in assay [8]. The assay is described as follows: BLI cross-block; competitor (immobilised): IgG1-5T4-226-FEAR.
Assay [9] shares this target. Nature of the assay: BLI cross-block; competitor (immobilised): IgG1-5T4-A1-F405L.
Assay [10] has the same target. The assay is described as follows: BLI, antibody on anti-human IgG Fc Capture biosensor, antigen in solution. (In general: In BLI a coated tip is dipped into the sample, and binding shifts an interference pattern.)
Assay [11] deals with T2, recombinant cynomolgus monkey 5T4 protein (Cusabio; cat. no. CSB-MP024093MOV) (cynomolgus monkey, UniProt Q4R8Y9 35-355).
T2 construct: extracellular domain; Bought protein; also called cynomolgus 5T4; cynomolgus monkey 5T4 extracellular domain
T2 sequence (looked up): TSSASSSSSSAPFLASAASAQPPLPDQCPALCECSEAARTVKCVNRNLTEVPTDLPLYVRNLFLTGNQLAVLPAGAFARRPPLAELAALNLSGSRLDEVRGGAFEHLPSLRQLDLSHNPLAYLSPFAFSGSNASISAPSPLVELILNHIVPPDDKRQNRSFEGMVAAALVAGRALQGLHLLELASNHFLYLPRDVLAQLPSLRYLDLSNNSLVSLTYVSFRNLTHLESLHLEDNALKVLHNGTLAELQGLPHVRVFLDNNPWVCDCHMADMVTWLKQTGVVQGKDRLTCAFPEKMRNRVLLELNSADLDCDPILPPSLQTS
Described as above.

Assay [12] has as its target T3, full length chicken 5T4 (SEQ ID NO: 3) on transfected HEK-293 cells (chicken).
T3 construct: Uniprot R4GM46; residues 1-27 are the signal peptide
T3 chain: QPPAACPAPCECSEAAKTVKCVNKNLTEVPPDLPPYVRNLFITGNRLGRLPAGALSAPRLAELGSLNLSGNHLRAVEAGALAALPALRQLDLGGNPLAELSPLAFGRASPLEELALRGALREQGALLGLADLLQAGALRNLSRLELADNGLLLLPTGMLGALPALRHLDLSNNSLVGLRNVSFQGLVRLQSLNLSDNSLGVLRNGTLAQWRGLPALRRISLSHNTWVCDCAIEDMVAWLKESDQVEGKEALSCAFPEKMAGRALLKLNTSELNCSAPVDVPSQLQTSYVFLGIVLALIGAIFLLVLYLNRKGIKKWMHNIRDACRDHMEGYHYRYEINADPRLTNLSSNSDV
Nature of the assay: flow cytometry, HEK-293 cells transfected with chicken 5T4, PE secondary.

Assay [13] addresses T4, full length cynomolgus monkey 5T4 on transfected HEK-293 cells (cynomolgus monkey, UniProt Q4R8Y9 35-420).
T4 construct: Uniprot Q4R8Y9; residues 1-34 are the signal peptide; also called cynomolgus 5T4
T4 sequence: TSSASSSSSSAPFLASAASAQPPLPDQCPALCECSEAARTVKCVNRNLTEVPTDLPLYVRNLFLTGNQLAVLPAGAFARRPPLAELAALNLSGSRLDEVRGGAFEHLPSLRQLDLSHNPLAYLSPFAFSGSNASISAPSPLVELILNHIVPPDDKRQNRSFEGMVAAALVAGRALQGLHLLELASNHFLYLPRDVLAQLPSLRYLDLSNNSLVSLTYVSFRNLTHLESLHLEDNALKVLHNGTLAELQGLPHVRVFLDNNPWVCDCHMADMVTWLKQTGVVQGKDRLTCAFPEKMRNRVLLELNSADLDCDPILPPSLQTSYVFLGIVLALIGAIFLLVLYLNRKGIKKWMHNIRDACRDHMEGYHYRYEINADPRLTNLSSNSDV
The assay is described as follows: flow cytometry, HEK-293 cells transfected with cynomolgus monkey 5T4, FITC secondary [I)B]. A general note: In flow cytometry, cells or beads pass a laser one at a time.

B1: IgG1-5T4-207-FEAR (antibody, V domains shown)
VH: QVQLQQWGAGLLKPSETLSLTCAVYGGSFSGYYWTWIRQPPGKGLEWIGEIDHSESTNYNPSLKSRVTISVDTSKNQFSLKLSSVTAADTAVYYCAGWFGELYHYYYGMDVWGQGTTVTVSS
VL: EIVLTQSPATLSLSPGERATLSCRASQSVSSYLAWYQQKPGQAPRLLIYDASNRATGIPARFSGSGSGTDFTLTISSLEPEDFAVYYCQQRSNWPLTFGGGTKVEIKR
notes: Monospecific, bivalent IgG1 FEAR
For the molecule B1, the corrected association response in assay [1] was -0.01 nm; in [2] it was 0.02 nm; in [3] it was 0.05 nm; in assay [4] it was 0.08 nm; in [5], -0.03 nm; in [6], 0.16 nm. Moreover, the corrected association response in [7] is -0.02 nm; in assay [8] it was -0.02 nm; in [9], 0.86 nm. Further, the values for the Kd in assay [10] and in assay [11] were 2.6 nM and 6.3 nM, respectively. Further, the koff – broadly, the first-order rate constant of dissociation – in assay [10] was 0.00068 s⁻¹; in assay [11], 0.00087 s⁻¹. In addition, the kon (as a rule, the second-order rate constant of association) in assay [10] came to 270000 M⁻¹ s⁻¹; in [11], 140000 M⁻¹ s⁻¹. Besides, the binding result in assay [12] is listed as “binds”.

B2: IgG1-5T4-226-FEAR (antibody, V domains shown)
VH: B1 VH with T35S, E55G, G97A, Y103W, H104D
VL: EIVLTQSPATLSLSPGERATLSCRASQSVSSFLAWYQQKPGQAPRLLIYDASNRATGIPARFSGSGSGTDFTLTISSLEPEDFAVYYCQQRSNWPLTFGQGTRLEIK
notes: Monospecific, bivalent human IgG1 kappa with L234F, L235E, D265A, K409R (FEAR); also called IgG1-5T4-226-FEAR-FITC
Regarding B2, the corrected association response in assay [1] was -0.01 nm; in [2], 0.01 nm; in assay [3], 0.05 nm; in assay [4] it was 0.07 nm; in assay [5], -0.02 nm; in assay [6], 0.16 nm. In addition, the corrected association response in [7] is -0.02 nm; in [8], -0.02 nm; in assay [9] it was 0.86 nm. In addition, the Kd – broadly, the constant that tells how readily two partners part at equilibrium – in assay [10] came out at 2.5 nM; in assay [11], 11 nM. For the same molecule, the koff stood at 0.00081 s⁻¹ in [10] and 0.0015 s⁻¹ in [11]. Besides, the kon in assay [10] worked out at 330000 M⁻¹ s⁻¹; in assay [11] it was 140000 M⁻¹ s⁻¹. Also, the binding result in assay [12] is “binds”. In assay [13], the EC50 (read off the curve) (usually the midpoint of the concentration-response curve) is approximately 0.08 µg/mL.
